Assay results as given in US9688764B2, “Methods of treating breast cancer by administering anti-human prolactin receptor (PRLR) antibodies” (REGENERON PHARMACEUTICALS, INC., priority 2013, dated 2017).

Columns and labels:
MCF7/PRLR tumors = test: Tumor growth inhibition in xenograft-bearing mice; assay type: in vivo, NCr nude mice; settings: for effect on MCF7/PRLR tumor growth: multi-dose trial 1, 5 and 15 mg/kg
Procedure, shortened: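 Subcutaneous xenografts: MCF7/PRLR in mammary fat pad of female NCr nude mice, PC3/PRLR in flank of male SCID, T47D#11 in flank of female CB17 SCID, each with estrogen pellet. At 250 mm^3, anti-PRLR ADCs given weekly ×3 (5 and/or 15 mg/kg) or once (1–15 mg/kg); caliper volumes twice weekly, TGI versus vehicle when vehicle reached 1000 mm^3.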

PC3/PRLR tumors = test: Tumor growth inhibition in xenograft-bearing mice; assay type: in vivo, SCID mice; settings: for effect on PC3/PRLR tumor growth: multi-dose, especially at 15 mg/kg; for Average Tumor Growth Inhibition (%): SCID mice
Source text: Briefly, 20×10^6 MCF7/PRLR cells (ATCC HTB-22 transfected with full length hPRLR as previously described) were implanted subcutaneously into the left mammary fat pad of female NCr nude mice. In other studies, 10×10^6 PC3/PRLR (ATCC CRL-1435 transfected with full length hPRLR as previously described) were implanted subcutaneously into the left flank of male SCID mice. Additionally, 10×10^6 parental T47D (ATCC HTB-133) or […] T47D#11 cells (ATCC HTB-133 serially passaged in vivo as described below) were subcutaneously implanted into the left flank of female CB17 SCID mice. All mice were obtained from Taconic (Hudson, N.Y.). Each bolus of cells was supplemented with a 90-day estrogen release pellet (1.7 mg/pellet; Innovative Research America, Sarasota Fla.). Once tumors had reached an average volume of 250 mm^3, mice were randomized into groups of seven and dosed with anti-PRLR antibody-drug conjugates of the invention or control reagents. Control reagents included PBS vehicle, free methyl-disulfide DM1 (DM1-SMe) and isotype Control 1-DM1.
In multi-dose studies, mice were dosed once a week for a total of three weeks with tumor volumes and body weights being monitored twice weekly throughout the study. Test ADCs were dosed at 5 and/or 15 mg/kg in the multi-dose studies. In single-dose studies, mice received a single dose of test ADC, and tumor volumes and body weights were monitored twice weekly throughout the study. Test ADCs were dosed at 1, 2.5, 5, and 15 mg/kg in the single-dose studies. Average tumor size as well as tumor growth inhibition relative to the vehicle treated group were calculated for each group. Tumors were measured with calipers twice a week until the average size of the vehicle group reached 1000 mm^3. Tumor size was calculated using the formula (length×width^2)/2. Tumor growth inhibition was calculated according to the following formula: (1−((Tfinal−Tinitial)/(Cfinal−Cinitial)))*100, where T (treated group) and C (control group) represent the mean tumor mass on the day the vehicle group reached 1000 mm^3. […] Results are summarized in Tables 21-25 (multi-dose) and Table 26 (single dose). (NT=not tested in the particular experiment shown).

[1] = molecular target: T1, hPRLR.mFc (soluble dimeric human PRLR) (Homo sapiens, UniProt P16471); test: Surface plasmon resonance (Biacore T200), mAb-capture format; assay type: binding; settings: antibody-capture format, analyte hPRLR.mFc
T1 construct: dimeric (hPRLR.mFc)
Procedure, shortened: (§1)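 Antibodies expressed as human IgG1 Fc variants were captured on an anti-human Fc sensor surface, then soluble PRLR protein was injected as analyte: monomeric human or cynomolgus PRLR.mmh, or dimeric human PRLR.mFc. ka and kd came from a 1:1 binding model fit.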

[2] = molecular target: T2, hPRLR.mmh (soluble monomeric human PRLR) (Homo sapiens, UniProt P16471); test: as above; assay type: binding; settings: antibody-capture format, analyte hPRLR.mmh
T2 construct: soluble monomeric (hPRLR.mmh); mmh (myc-myc-hexahistidine)
Procedure, shortened: as §1

[3] = molecular target: mfPRLR.mmh (monomeric macaca fascicularis PRLR); test: as above; assay type: binding; settings: antibody-capture format, analyte mfPRLR.mmh
Procedure, shortened: as §1

[4] = system: HEK293/hPRLR/STAT5-Luc cells (human PRLR); test: STAT5-Luc luciferase reporter assay, blocking of PRL-mediated receptor activation; assay type: cell-based; settings: for IC50: 5 nM constant PRL, 6 hr at 37° C.; for Percent Blocking at 100 nM Antibody: 5 nM PRL
Procedure, shortened: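 Engineered HEK293 line stably carrying human PRLR and a STAT5-dependent luciferase reporter; antibodies (100 nM to 24 pM) incubated 6 hr at 37° C with 5 nM constant PRL, luminescence read. IC50 from four-parameter fit of 8-point curves; percent blocking at highest antibody dose; agonism without ligand also tested.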

T2 sequence (P16471 with tags, fused parts or gaps): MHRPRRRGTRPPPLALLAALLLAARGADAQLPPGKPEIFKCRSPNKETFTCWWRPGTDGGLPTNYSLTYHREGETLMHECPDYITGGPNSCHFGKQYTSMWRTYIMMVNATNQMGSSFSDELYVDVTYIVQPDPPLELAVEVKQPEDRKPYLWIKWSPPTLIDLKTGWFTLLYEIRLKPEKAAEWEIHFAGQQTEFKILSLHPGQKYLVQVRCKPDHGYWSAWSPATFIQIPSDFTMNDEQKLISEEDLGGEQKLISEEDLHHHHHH
Chain of mfPRLR.mmh (monomeric macaca fascicularis PRLR) (as listed by the source): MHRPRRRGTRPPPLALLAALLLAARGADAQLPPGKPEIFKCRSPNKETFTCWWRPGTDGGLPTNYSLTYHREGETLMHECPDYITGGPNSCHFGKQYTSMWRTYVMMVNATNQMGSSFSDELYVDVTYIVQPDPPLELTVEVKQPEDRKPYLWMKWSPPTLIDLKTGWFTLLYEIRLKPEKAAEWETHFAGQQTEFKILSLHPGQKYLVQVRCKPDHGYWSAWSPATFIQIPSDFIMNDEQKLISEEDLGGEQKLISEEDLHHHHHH
T1 sequence (P16471 with tags, fused parts or gaps): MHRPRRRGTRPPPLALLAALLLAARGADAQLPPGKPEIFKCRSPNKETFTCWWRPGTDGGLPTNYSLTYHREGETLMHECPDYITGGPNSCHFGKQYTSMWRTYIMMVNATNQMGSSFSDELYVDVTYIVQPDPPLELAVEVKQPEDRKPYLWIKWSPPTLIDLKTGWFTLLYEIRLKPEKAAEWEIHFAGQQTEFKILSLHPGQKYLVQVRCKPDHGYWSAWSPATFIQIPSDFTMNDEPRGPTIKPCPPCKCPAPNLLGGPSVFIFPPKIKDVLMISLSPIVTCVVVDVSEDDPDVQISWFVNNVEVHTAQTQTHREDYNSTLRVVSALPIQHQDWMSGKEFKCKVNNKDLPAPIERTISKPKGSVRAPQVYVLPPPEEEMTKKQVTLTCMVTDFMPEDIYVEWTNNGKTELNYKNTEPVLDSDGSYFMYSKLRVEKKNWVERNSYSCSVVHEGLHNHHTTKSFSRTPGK

| Molecule | effect on MCF7/PRLR tumor growth (MCF7/PRLR tumors) | effect on PC3/PRLR tumor growth (PC3/PRLR tumors) | Kd ([1]; 25° C.) | T½ ([1]; 25° C.) | Kd ([1]; 37° C.) | T½ ([1]; 37° C.) | Kd ([2]; 25° C.) | T½ ([2]; 25° C.) | Kd ([2]; 37° C.) | T½ ([2]; 37° C.) | Kd ([3]; 25° C.) | T½ ([3]; 25° C.) | Kd ([3]; 37° C.) | T½ ([3]; 37° C.) | IC50 [4] | Percent Blocking at 100 nM Antibody [4] | other results |
| --- | --- | --- | --- | --- | --- | --- | --- | --- | --- | --- | --- | --- | --- | --- | --- | --- | --- |
| H1H6953N-DM1 (conjugate) VH: EVQLLESGGGLVQPGGTLRLSCAASGFTFSAYAMSWVRQAPGKGLEWVSSINVRAGDTYYADSVKGRFTISRDNSKNTLFLLMNSLRAEDTAAYYCAKARYSSNWGFDFWGQGTLVTVSS VL: DIVMTQSPDSLTVSLGARTTINCQSSQTILHSSNNHNYLAWYQQKPGLPPKLLIYWSSTRESGVPDRFSGSGSGTDFTLTISSLQAEDVAIYYCQQYSNTPYTFGQGTKLEIN | potently inhibited MCF7/PRLR tumor growth | demonstrated inhibition of tumor growth | – | – | – | – | – | – | – | – | – | – | – | – | – | – | – |
| H1H6958N2-DM1: anti-PRLR antibody H1H6958N2 conjugated to DM1 through an SMCC linker (conjugate) VH: QVQLVESGGGVVQPGRSLRLSCGASGFTFRNYGMQWVRQGPGKGLEWVTLISFDGNDKYYADSVKGRFTISRDNSKNTLFLQMNSLRTEDTAVYYCARGGDFDYWGQGTLVTVSS VL: DIQMTQSPSSLSASVGDRVTITCRASQDIRKDLGWYQQKPGKAPKRLIYAASSLHSGVPSRFSGSGSGTEFTLTISSLQPEDFATYYCLQHNSYPMYTFGQGTKLEIK | potently inhibited MCF7/PRLR tumor growth | demonstrated inhibition of tumor growth | – | – | – | – | – | – | – | – | – | – | – | – | – | – | effect on tumor volume relative to vehicle control tumors (MCF7/PRLR tumors; single dose, 1 mg/kg): significant decrease in tumor volume; tumor growth inhibition (MCF7/PRLR tumors; single dose, all doses above 1 mg/kg tested (2.5, 5, 15 mg/kg)): > 100%; Average Tumor Growth Inhibition (%) (PC3/PRLR tumors; PC3/PRLR tumors TRIAL #1, multi-dose 5 mg/kg, Day 63): 5% |
| H1H6765P: anti-PRLR antibody, human IgG1 Fc; HCVR/LCVR SEQ ID NOs 18/26 (antibody, V domains shown, human IgG1 Fc) VH: EVQLVESGGGVVRPGGSLRLSCVGSGFSFDDHGMNWVRQGPGKGLEWVSGFNWNGGSTNYAESVKGRFTISRDNARNSLFLQMNSLRAEDTALYYCVRGRSGWFNDAFDVWGPGTMVTVSS VL: EIVLTQSPGTLSLSPGERATLSCRASQTINSNYLAWYRQKPGQTPRLLIYGTSSRATGIPDRFSGSGSGTDFSLTISRLEPEDFAVFYCQQYAGLPTFGPGTKVDIK | – | – | 0.0392 nM | 339 min | 0.128 nM | 112 min | 0.124 nM | 102 min | 0.292 nM | 32 min | 0.254 nM | 86 min | 0.0504 nM | 215 min | 0.033 nM | 100% | Average Tumor Growth Inhibition (%) (PC3/PRLR tumors; PC3/PRLR tumors TRIAL #2, multi-dose 15 mg/kg, Day 55): 1% |
| H1H6953N: human IgG1 Fc form of H1M6953N; anti-PRLR; HCVR/LCVR SEQ ID NOs 274/282 (antibody, V domains shown, human IgG1 Fc) VH: EVQLLESGGGLVQPGGTLRLSCAASGFTFSAYAMSWVRQAPGKGLEWVSSINVRAGDTYYADSVKGRFTISRDNSKNTLFLLMNSLRAEDTAAYYCAKARYSSNWGFDFWGQGTLVTVSS VL: DIVMTQSPDSLTVSLGARTTINCQSSQTILHSSNNHNYLAWYQQKPGLPPKLLIYWSSTRESGVPDRFSGSGSGTDFTLTISSLQAEDVAIYYCQQYSNTPYTFGQGTKLEIN | – | – | 0.067 nM | 242.2 min | 0.116 nM | 68.0 min | 0.268 nM | 54.5 min | 1.11 nM | 9.4 min | 0.438 nM | 36.3 min | 2.71 nM | 4.5 min | 0.105 nM | 100% | Average Tumor Growth Inhibition (%) (MCF7/PRLR tumors; MCF7/PRLR tumors TRIAL #1, multi-dose 15 mg/kg, NCr Nude mice, Day 52): 79% |
